In PMC6799845, “On-chip structure-switching aptamer-modified magnetic nanobeads for the continuous monitoring of interferon-gamma ex vivo”:

Experiments:
[1] = target: PSA (UniProt P07288 25-261); assay: electrochemistry (on-chip bead-bound aptamer); 1 mg/mL; no significant signal (<15%); Buffer C: 100 mM Tris-HCl pH 7.4, 100 mM NaCl, 1 mM MgCl2, 5 mM KCl; room temperature (optimized conditions stated as pH 7.5, 100 mM salt); settings: protein: commercial; label: 5'-ferrocene; 3'-biotin (on streptavidin magnetic beads); hairpin
PSA, sequence (P07288 25-261): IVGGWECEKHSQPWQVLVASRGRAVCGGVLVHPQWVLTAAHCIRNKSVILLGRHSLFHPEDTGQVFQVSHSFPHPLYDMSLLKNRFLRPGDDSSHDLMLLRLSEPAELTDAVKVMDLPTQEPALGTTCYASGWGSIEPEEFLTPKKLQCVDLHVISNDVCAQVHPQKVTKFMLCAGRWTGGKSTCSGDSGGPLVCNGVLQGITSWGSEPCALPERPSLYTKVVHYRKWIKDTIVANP

[2] = target: interferon gamma (IFN-γ) (human, UniProt P01579 24-166); assay: electrochemistry (SWV, on-chip bead-bound aptamer); 1 mM Mg2+, 5 mM K+; from calibration-curve midpoint (100 pg/mL) (so in the source); Buffer C: 100 mM Tris-HCl pH 7.4, 100 mM NaCl, 1 mM MgCl2, 5 mM KCl; room temperature (optimized conditions stated as pH 7.5, 100 mM salt); settings: protein: recombinant; chain copies: 2; label: 5'-ferrocene; 3'-biotin (on streptavidin magnetic beads); hairpin
interferon gamma (IFN-γ), sequence (P01579 24-166): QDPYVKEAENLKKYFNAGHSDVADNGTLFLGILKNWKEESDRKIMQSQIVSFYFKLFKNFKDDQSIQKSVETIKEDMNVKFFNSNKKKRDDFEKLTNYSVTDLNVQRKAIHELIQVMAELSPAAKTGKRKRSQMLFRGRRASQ

[3] = target: TNF-α (UniProt P01375 77-233); assay: electrochemistry (on-chip bead-bound aptamer); 1 ng/mL; no significant signal (<15%); Buffer C: 100 mM Tris-HCl pH 7.4, 100 mM NaCl, 1 mM MgCl2, 5 mM KCl; room temperature (optimized conditions stated as pH 7.5, 100 mM salt); settings: protein: commercial; chain copies: 3; label: 5'-ferrocene; 3'-biotin (on streptavidin magnetic beads); hairpin
TNF-α, sequence (P01375 77-233): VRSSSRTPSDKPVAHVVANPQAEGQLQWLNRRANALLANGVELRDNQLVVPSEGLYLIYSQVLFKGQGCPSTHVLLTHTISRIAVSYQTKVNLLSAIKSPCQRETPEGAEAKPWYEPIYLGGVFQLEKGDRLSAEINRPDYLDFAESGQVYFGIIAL

[4] = target: IL-6 (UniProt P05231 30-212); assay: as above; settings: protein: commercial; label: 5'-ferrocene; 3'-biotin (on streptavidin magnetic beads); hairpin
IL-6, sequence (P05231 30-212): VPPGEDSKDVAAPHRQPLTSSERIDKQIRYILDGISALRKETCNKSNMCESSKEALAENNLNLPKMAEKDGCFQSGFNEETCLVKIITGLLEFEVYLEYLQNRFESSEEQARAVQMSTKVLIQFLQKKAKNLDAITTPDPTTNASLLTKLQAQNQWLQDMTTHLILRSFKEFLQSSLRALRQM

B1: Fc-labeled IFN-γ hairpin aptamer (MB-aptamer) (structured_DNA)
DNA: GGGGTTGGTTGTGTTGGGTGTTGTGTCCAACCCC
Q: Does B1 bind [1]?
A: Result: no binding

Q: And the Ka [2]?
A: The Ka was roughly 2.1e+10 M⁻¹.

Q: Does B1 bind [3]?
A: Result: no binding

Q: Does B1 bind [4]?
A: Result: no binding
